Test results published in article PMC8625570 (2021).

How the values were obtained:
Test in all cases: mGppNHp-bound
RAC3 (aa 1-192) [1] = target: T1, RAC3 (aa 1-192) (human, UniProt P60763 1-192)
RAC1 (aa 1-179) [2] = target: T2, RAC1 (aa 1-179) (human, UniProt P63000 1-179)
CDC42 (aa 1-178) [3] = target: T3, CDC42 (aa 1-178) (human, UniProt P60953 1-178)
RHOG (aa 1-178) [4] = target: T4, RHOG (aa 1-178) (human, UniProt P84095 1-178)
RAC3 (aa 1-192) [5] = target: T1, RAC3 (aa 1-192); remark: listed apart in the source
RAC2 (aa 1-192) = RAC2 (aa 1-192) (human, UniProt P15153 1-192)
RAC1 (aa 1-179) [6] = target: T2, RAC1 (aa 1-179); remark: listed apart in the source
CDC42 (aa 1-178) [7] = target: T3, CDC42 (aa 1-178); remark: listed apart in the source
RHOG (aa 1-178) [8] = target: T4, RHOG (aa 1-178); remark: listed apart in the source
RAC1 M45E/N52E [9] = target: T5, RAC1 M45E/N52E (human, UniProt P63000 1-179, M45E | N52E)
RAC1 Q74D [10] = target: T6, RAC1 Q74D (human, UniProt P63000 1-179, Q74D)
[11] = target: T7, RAC1 V85D/S88D (so in the source); residue 88 of RAC1 is Ala by the legend of Figure 2) (human, UniProt P63000 1-179, V85D | S88D (Ala-88 in RAC1))
RAC1 T25K/N26D [12] = target: T8, RAC1 T25K/N26D (human, UniProt P63000 1-179, T25K | N26D)
CDC42 V85D/S88D [13] = target: T9, CDC42 V85D/S88D (human, UniProt P60953 1-178, V85D | S88D)
T9 sequence (P60953 1-178 V85D/S88D): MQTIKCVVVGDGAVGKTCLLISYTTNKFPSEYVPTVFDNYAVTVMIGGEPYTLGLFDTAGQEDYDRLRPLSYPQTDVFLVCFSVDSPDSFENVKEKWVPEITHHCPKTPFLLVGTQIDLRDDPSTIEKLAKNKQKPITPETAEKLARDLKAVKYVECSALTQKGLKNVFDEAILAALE

CDC42 T25K/N26D [14] = target: T10, CDC42 T25K/N26D (human, UniProt P60953 1-178, T25K | N26D)
T10 sequence (P60953 1-178 T25K/N26D): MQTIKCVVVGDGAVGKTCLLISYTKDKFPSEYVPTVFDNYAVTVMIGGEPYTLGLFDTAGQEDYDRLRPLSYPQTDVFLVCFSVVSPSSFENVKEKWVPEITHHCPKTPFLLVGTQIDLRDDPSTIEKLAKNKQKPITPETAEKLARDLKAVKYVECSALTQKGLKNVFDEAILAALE

[15] = target: T11, RHOA-to-RAC1 variant (RHOA K27T, D28N, E47M, E54N, D76Q) (human, UniProt P61586 1-181, K27T | D28N | E47M | E54N | D76Q)
T11 sequence (P61586 1-181 K27T/D28N/E47M/E54N/D76Q): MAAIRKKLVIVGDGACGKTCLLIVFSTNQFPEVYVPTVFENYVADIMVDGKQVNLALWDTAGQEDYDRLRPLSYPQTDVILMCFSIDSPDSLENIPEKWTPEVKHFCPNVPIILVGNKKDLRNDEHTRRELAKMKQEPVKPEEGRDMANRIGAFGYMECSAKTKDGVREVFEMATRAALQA

[16] = target: T12, CDC42 M45E/N52E (so in the source); residue 52 of CDC42 is given as T52 in the discussion) (human, UniProt P60953 1-178, M45E | N52E (T52 in CDC42))
T12 sequence (P60953 other isoform, or with tags, fused parts or gaps M45E | N52E (T52 in CDC42) | M45E N52E): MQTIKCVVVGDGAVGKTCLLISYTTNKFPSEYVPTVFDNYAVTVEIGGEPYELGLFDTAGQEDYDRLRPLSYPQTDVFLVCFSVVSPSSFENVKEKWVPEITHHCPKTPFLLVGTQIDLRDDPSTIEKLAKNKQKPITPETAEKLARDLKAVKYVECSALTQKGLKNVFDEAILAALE

CDC42 Q74D [17] = target: T13, CDC42 Q74D (human, UniProt P60953 1-178, Q74D)
T13 sequence (P60953 1-178 Q74D): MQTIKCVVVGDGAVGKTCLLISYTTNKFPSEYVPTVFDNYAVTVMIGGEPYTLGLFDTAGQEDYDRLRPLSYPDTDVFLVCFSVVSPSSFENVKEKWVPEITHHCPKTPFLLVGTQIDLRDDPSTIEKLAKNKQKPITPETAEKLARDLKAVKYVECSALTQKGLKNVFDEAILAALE

RAC1 M45E/N52E [18] = target: T5, RAC1 M45E/N52E; remark: listed apart in the source
RAC1 Q74D [19] = target: T6, RAC1 Q74D; remark: listed apart in the source
[20] = target: T7, RAC1 V85D/S88D (so in the source); residue 88 …; remark: listed apart in the source
RAC1 T25K/N26D [21] = target: T8, RAC1 T25K/N26D; remark: listed apart in the source
CDC42 V85D/S88D [22] = target: T9, CDC42 V85D/S88D; remark: listed apart in the source
CDC42 T25K/N26D [23] = target: T10, CDC42 T25K/N26D; remark: listed apart in the source
[24] = target: T11, RHOA-to-RAC1 variant (RHOA K27T, D28N, …); remark: listed apart in the source
[25] = target: T12, CDC42 M45E/N52E (so in the source); residue 52 …; remark: listed apart in the source
CDC42 Q74D [26] = target: T13, CDC42 Q74D; remark: listed apart in the source

T3 sequence (P60953 1-178): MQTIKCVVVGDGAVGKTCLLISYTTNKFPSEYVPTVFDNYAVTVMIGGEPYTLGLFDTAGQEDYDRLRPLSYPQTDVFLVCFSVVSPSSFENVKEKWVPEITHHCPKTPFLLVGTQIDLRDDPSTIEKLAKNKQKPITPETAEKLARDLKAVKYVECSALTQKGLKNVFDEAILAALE
T4 sequence (P84095 1-178): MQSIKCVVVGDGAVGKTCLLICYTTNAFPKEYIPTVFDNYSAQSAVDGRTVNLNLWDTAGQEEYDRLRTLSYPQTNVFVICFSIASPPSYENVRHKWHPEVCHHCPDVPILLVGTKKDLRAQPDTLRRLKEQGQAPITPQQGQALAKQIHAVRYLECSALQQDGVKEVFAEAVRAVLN

Kd (RAC3 (aa 1-192) [1]): 450 nM
Kd (RAC1 (aa 1-179) [2]): 930 nM
Kd (CDC42 (aa 1-178) [3]): 290 nM
Kd (RHOG (aa 1-178) [4]): 490 nM
koff (RAC3 (aa 1-192) [5]): 0.69 s⁻¹
koff (RAC2 (aa 1-192)): 0.08 s⁻¹
koff (RAC1 (aa 1-179) [6]): 0.65 s⁻¹
koff (CDC42 (aa 1-178) [7]): 0.39 s⁻¹
koff (RHOG (aa 1-178) [8]): 0.56 s⁻¹
koff (RAC1 M45E/N52E [9]): 1.4 s⁻¹
koff (RAC1 Q74D [10]): 0.74 s⁻¹
koff [11]: 2.84 s⁻¹
koff (RAC1 T25K/N26D [12]): 2.01 s⁻¹
koff (CDC42 V85D/S88D [13]): 0.88 s⁻¹
koff (CDC42 T25K/N26D [14]): 0.48 s⁻¹
koff [15]: 2.1 s⁻¹
koff [16]: 0.95 s⁻¹
koff (CDC42 Q74D [17]): 1.19 s⁻¹
Kd (RAC1 M45E/N52E [18]): 8200 nM
Kd (RAC1 Q74D [19]): 6100 nM
Kd [20]: 10500 nM
Kd (RAC1 T25K/N26D [21]): 15300 nM
Kd (CDC42 V85D/S88D [22]): 1200 nM
Kd (CDC42 T25K/N26D [23]): 920 nM
Kd [24]: 1750 nM
Kd [25]: 1230 nM
Kd (CDC42 Q74D [26]): 1320 nM
B1: IQGAP1^C794 (C-terminal half of human IQGAP1 with the GRD, RGCT and CT domains) (domain or fragment)
chain: DPPMVVVRKFVHLLDQSDQDFQEELDLMKMREEVITLIRSNQQLENDLNLMDIKIGLLVKNKITLQDVVSHSKKLTKKNKEQLSDMMMINKQKGGLKALSKEKREKLEAYQHLFYLLQTNPTYLAKLIFQMPQNKSTKFMDSVIFTLYNYASNQREEYLLLRLFKTALQEEIKSKVDQIQEIVTGNPTVIKMVVSFNRGARGQNALRQILAPVVKEIMDDKSLNIKTDPVDIYKSWVNQMESQTGEASKLPYDVTPEQALAHEEVKTRLDSSIRNMRAVTDKFLSAIVSSVDKIPYGMRFIAKVLKDSLHEKFPDAGEDELLKIIGNLLYYRYMNPAIVAPDAFDIIDLSAGGQLTTDQRRNLGSIAKMLQHAASNKMFLGDNAHLSIINEYLSQSYQKFRRFFQTACDVPELQDKFNVDEYSDLVTLTKPVIYISIGEIINTHTLLLDHQDAIAPEHNDPIHELLDDLGEVPTIESLIGESSGNLNDPNKEALAKTEVSLTLTNKFDVPGDENAEMDARTILLNTKRLIVDVIRFQPGETLTEILETPATSEQEAEHQRAMQRRAIRDAKTPDKMKKSKSVKEDSNLTLQEKKEKIQTGLKKLTELGTVDPKNKYQELINDIARDIRNQRRYRQRRKAELVKLQQTYAALNSKATFYGEQVDYYKSYIKTCLDNLASKGKVSKKPREMKGKKSKKISLKYTAARLHEKGVLLEIEDLQVNQFKNVIFEISPTEEVGDFEVKAKFMGVQMETFMLHYQDLLQLQYEGVAVMKLFDRAKVNVNLLIFLLNKKFYGK
